Two proteins from article PMC4144707 (Biochemistry, 2014) can be followed below.

This series concerns the molecule itself. Description: deuterium MAS solid-state NMR.

Where no end group is shown, it is not given here.

Consider RRAGSVYAGILSYGVGFFLFILVVAAVTLCRLRSPPKKGLG-NH2 (also: (5,5,5-d3) leucine at 385 or 388) [FGFR3 TM–JM (WT) peptide, FGFR3 (369–407) with two N-terminal arginines], for which the binding result is “binds”. As for RRAGSVYAGILSYGVGFFLFILVVEAVTLCRLRSPPKKGLG-NH2 (also: (5,5,5-d3) leucine at 385 or 388) [FGFR3 TM–JM (A391E) peptide, FGFR3 (369–407) with two N-terminal arginines], the entry is “binds”.
